From patent US20240166767A1 (SCIRHOM, published 2024)
Residue numbers refer to the chain shown, from its start.

B1: humanized antibody 16-B-07 (antibody, V domains shown)
VH: QVTLRESGPALVKPTQTLTLTCTFSGFSLSTFALGVGWIRQPPGKALEWLAHIWWDEDKYYNPALKSRLTISKDTSKNQVVLTITNMDPVDTATYYCARITTYYYGMDYWGQGTLVTVSS
VL: EIVMTQSPDFQSVTPKEKVTITCRASQSIGNHLHWYQQKPDASPKLLIKYASQSISGVPSRFSGSGSGTDFTLTINSLEAEDAATYFCQQSYQWPLTFGQGTKLEIK
notes: Tested as whole humanized antibody produced in CHO cells and detected with anti-human IgG; the general methods speak of human IgG1/Kappa; also called clone 16-B-07
B2: humanized antibody 16-B-03 (antibody, V domains shown)
VH: B1 VH with E57D
VL: B1 VL
notes: Tested as whole humanized antibody produced in CHO cells and detected with anti-human IgG; the general methods speak of human IgG1/Kappa; also called clone 16-B-03
B3: humanized antibody 16-B-05 (antibody, V domains shown)
VH: B1 VH
VL: B1 VL with Q93N
notes: Tested as whole humanized antibody produced in CHO cells and detected with anti-human IgG; the general methods speak of human IgG1/Kappa; The printed LCVD reads SRESGSG where the printed cDNA encodes SRFSGSG; also called clone 16-B-05
B4: humanized antibody 42-B-04 (antibody, V domains shown)
VH: QVTLRESGPALVKPTQTLTLTCTFSGFSLSTFGRGVGWIRQPPGKALEWLAHIWWDDEKYYNSALKSRLTISKDTSKNQVVLTITNMDPVDTATYYCARIQNYGSNYWYFDVWGQGTLVTVSS
VL: AIQLTQSPSSLSASVGDRVTITCRASSRISYMFWYQQKPGKAPKVLIYDTSNLASGVPSRFSGSGSGTDYTLTISSLQPEDFATYYCQQWNAYPLTFGQGTKLEIK
notes: Tested as whole humanized antibody produced in CHO cells and detected with anti-human IgG; the general methods speak of human IgG1/Kappa; also called clone 42-B-04
B5: humanized antibody 42-B-02 (antibody, V domains shown)
VH: B4 VH
VL: B4 VL with A92S
notes: Tested as whole humanized antibody from transient expression of heavy chain/kappa light chain pairs in CHO cells, detected with anti-human IgG; the general methods speak of human IgG1/Kappa; also called clone 42-B-02
B6: humanized antibody 23-B-04 (antibody, V domains shown)
VH: B4 VH with R34M, Q101S, D111N
VL: B4 VL with R28S, I29V, F33Y
notes: Tested as whole humanized antibody produced in CHO cells and detected with anti-human IgG; the general methods speak of human IgG1/Kappa; also called clone 23-B-04

target: T1, mouse iRhom2 full length wild type C-terminally tagged with 3 consecutive copies of the T7 epitope (mouse, UniProt Q80WQ6 1-827); experiment: FACS on MEF-DKO-miR2-FL-WT-T7 cells
T1 construct: also called miR2-FL-WT-T7; mouse iRhom2 variant
T1 sequence: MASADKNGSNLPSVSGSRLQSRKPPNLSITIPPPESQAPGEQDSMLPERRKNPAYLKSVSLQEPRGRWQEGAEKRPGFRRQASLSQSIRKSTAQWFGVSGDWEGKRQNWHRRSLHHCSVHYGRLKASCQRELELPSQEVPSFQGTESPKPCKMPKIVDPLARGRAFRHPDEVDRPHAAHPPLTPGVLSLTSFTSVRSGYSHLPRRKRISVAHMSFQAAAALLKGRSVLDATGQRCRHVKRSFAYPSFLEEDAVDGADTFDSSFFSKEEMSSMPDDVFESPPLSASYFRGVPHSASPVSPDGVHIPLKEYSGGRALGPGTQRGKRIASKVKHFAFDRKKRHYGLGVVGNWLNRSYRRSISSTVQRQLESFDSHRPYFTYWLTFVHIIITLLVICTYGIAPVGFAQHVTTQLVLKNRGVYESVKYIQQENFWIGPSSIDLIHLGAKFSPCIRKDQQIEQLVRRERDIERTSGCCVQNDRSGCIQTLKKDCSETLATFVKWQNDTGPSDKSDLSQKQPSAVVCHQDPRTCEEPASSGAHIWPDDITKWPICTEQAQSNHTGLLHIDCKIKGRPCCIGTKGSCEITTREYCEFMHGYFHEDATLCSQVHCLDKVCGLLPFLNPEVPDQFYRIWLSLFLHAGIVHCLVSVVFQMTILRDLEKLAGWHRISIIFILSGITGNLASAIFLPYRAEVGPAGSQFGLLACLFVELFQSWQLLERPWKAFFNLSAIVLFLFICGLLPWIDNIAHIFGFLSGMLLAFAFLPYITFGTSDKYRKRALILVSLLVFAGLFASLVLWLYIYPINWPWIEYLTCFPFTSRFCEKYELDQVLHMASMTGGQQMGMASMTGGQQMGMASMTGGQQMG
Procedure: In brief, immortalized MEF-DKO-EV control cells, MEF-DKO-hiR2-FL-WT-T7 cells and MEF-DKO-miR2-FL-WT-T7 cells were harvested with 10 mM EDTA in PBS, washed and resuspended in FACS buffer (PBS, 3% FBS, 0.05% sodium azide), and seeded in Nunc U-bottom 96-well plates (Thermo Fisher Scientific, USA) at approximately 3×10⁵ cells per well. To pellet cells and remove supernatants, the plates were centrifuged at 1,500 rpm and 4° C. for 3 minutes. For primary staining, cells were resuspended in 100 μl per well of either FACS buffer alone (controls), mouse monoclonal anti-T7 IgG (Merck Millipore, USA) at 3 μg/ml FACS buffer or the humanized antibodies 16-B-03, 16-B-05, 16-B-07, 23-B-04, 42-B-02 and 42-B-04 of the invention also at 3 μg/ml FACS buffer and incubated on ice for 1 hour. Afterwards, plates were centrifuged at 1,500 rpm and 4° C. for 3 minutes and washed twice with 200 μl per well of FACS buffer. For secondary staining of previous anti T7 staining, cells were spun down and resuspended in 100 μl per well of PE-conjugated goat anti-mouse IgG F(ab′)2 detection fragment (Dianova, Germany) diluted 1:100 in FACS buffer. For secondary staining of previous staining with humanized antibodies of invention, cells were spun down and resuspended in 100 μl per well of PE-conjugated goat anti-human IgG F(ab′)2 detection fragment (Dianova, Germany) diluted 1:100 in FACS buffer. Protected from light, the cell suspensions were incubated on ice for 1 hour. Plates were then centrifuged at 1,500 rpm and 4° C. for 3 minutes and washed three times with 200 μl per well of FACS buffer. Finally, cells were resuspended in 150 μl per well of FACS buffer and analyzed using a BD Accuri™ C6 Plus flow cytometer (Becton Dickinson, Germany).

Binder | binding result
B1 | no binding (tested: 3 µg/ml)
B2 | no binding (tested: 3 µg/ml)
B3 | no binding (tested: 3 µg/ml)
B4 | no binding (tested: 3 µg/ml)
B5 | no binding (tested: 3 µg/ml)
B6 | no binding (tested: 3 µg/ml)

Target: T2, human iRhom2 full length wild type C-terminally tagged with 3 consecutive copies of the T7 epitope (UniProt Q6PJF5 1-856)
T2 chain: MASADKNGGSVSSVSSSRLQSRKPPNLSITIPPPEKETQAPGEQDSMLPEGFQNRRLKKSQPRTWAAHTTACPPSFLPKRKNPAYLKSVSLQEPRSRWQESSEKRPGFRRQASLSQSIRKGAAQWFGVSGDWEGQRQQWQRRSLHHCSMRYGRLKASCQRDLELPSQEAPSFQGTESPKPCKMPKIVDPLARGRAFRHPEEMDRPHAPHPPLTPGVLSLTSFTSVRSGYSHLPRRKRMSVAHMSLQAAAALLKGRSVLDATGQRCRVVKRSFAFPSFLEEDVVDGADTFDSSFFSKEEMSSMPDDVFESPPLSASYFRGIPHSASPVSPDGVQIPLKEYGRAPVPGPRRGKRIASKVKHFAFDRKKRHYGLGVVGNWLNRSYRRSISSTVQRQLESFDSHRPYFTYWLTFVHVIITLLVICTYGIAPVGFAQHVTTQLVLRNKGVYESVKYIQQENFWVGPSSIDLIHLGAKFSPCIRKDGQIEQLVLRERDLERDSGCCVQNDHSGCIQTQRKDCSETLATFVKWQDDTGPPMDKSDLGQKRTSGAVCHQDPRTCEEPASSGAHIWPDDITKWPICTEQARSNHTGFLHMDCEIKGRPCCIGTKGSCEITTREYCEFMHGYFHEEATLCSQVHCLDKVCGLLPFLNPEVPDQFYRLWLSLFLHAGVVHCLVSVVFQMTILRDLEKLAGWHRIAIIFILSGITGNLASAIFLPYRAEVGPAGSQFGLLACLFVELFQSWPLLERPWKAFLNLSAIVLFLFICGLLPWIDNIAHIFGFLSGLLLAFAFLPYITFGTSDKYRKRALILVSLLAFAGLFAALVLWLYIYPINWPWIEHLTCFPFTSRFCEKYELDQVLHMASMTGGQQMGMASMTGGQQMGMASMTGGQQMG
Experiment: FACS Scatchard

Binder | Kd
B1 | 0.99 nM
B2 | 0.67 nM
B3 | 1.07 nM
B4 | 0.48 nM
B5 | 0.5 nM
B6 | 0.58 nM
